Results: patent publication US20140087995A1 (published 2014)
Numbered stars: 1 amine (or outer) side, 2 acyl side, 3 side chain; on linkers, the order of the positions; unused ones are H or OH. Bridge positions count the residues as written; N and C are the ends. Side chains are listed from the residue outwards. Ends that are not written are not given here. * marks the point of attachment. C20 diacid = O=C(O)CCCCCCCCCCCCCCCCCCC(=O)*; γGlu = O=C(O)[C@H](CCC(=O)[*:2])N[*:1]

B1: N^ε1-[(4S)-4-carboxy-4-[[(4S)-4-carboxy-4-(19-carboxynonadecanoylamino)butanoyl]amino]butanoyl]-[Glu14,Arg17,Pro21,Pro27,Pro34,Phe37]-h-amylin (peptide)
peptide: K([γGlu-γGlu-C20 diacid])CNTATCATQRLAEFLRHSSPNFGAIPSSTNVGPNTF-NH2
modifications: disulfide 2-7; N-terminus assumed
SMILES: CC[C@H](C)[C@H](NC(=O)[C@H](C)NC(=O)CNC(=O)[C@H](Cc1ccccc1)NC(=O)[C@H](CC(N)=O)NC(=O)[C@@H]1CCCN1C(=O)[C@H](CO)NC(=O)[C@H](CO)NC(=O)[C@H](Cc1c[nH]cn1)NC(=O)[C@H](CCCNC(=N)N)NC(=O)[C@H](CC(C)C)NC(=O)[C@H](Cc1ccccc1)NC(=O)[C@H](CCC(=O)O)NC(=O)[C@H](C)NC(=O)[C@H](CC(C)C)NC(=O)[C@H](CCCNC(=N)N)NC(=O)[C@H](CCC(N)=O)NC(=O)[C@@H](NC(=O)[C@H](C)NC(=O)[C@@H]1CSSC[C@H](NC(=O)[C@@H](N)CCCCNC(=O)CC[C@H](NC(=O)CC[C@H](NC(=O)CCCCCCCCCCCCCCCCCCC(=O)O)C(=O)O)C(=O)O)C(=O)N[C@@H](CC(N)=O)C(=O)N[C@@H]([C@@H](C)O)C(=O)N[C@@H](C)C(=O)N[C@@H]([C@@H](C)O)C(=O)N1)[C@@H](C)O)C(=O)N1CCC[C@H]1C(=O)N[C@@H](CO)C(=O)N[C@@H](CO)C(=O)N[C@H](C(=O)N[C@@H](CC(N)=O)C(=O)N[C@H](C(=O)NCC(=O)N1CCC[C@H]1C(=O)N[C@@H](CC(N)=O)C(=O)N[C@H](C(=O)N[C@@H](Cc1ccccc1)C(N)=O)[C@@H](C)O)C(C)C)[C@@H](C)O
notes: Synthetic acylated analogue of human amylin
B2: N^ε1-[(4S)-4-carboxy-4-[[(4S)-4-carboxy-4-(19-carboxynonadecanoylamino)butanoyl]amino]butanoyl]-[Ser14,Arg17,Pro21,Pro27,Pro34,Glu35]-h-amylin (peptide)
peptide: K([γGlu-γGlu-C20 diacid])CNTATCATQRLASFLRHSSPNFGAIPSSTNVGPETY-NH2
modifications: disulfide 2-7; N-terminus assumed
SMILES: CC[C@H](C)[C@H](NC(=O)[C@H](C)NC(=O)CNC(=O)[C@H](Cc1ccccc1)NC(=O)[C@H](CC(N)=O)NC(=O)[C@@H]1CCCN1C(=O)[C@H](CO)NC(=O)[C@H](CO)NC(=O)[C@H](Cc1c[nH]cn1)NC(=O)[C@H](CCCNC(=N)N)NC(=O)[C@H](CC(C)C)NC(=O)[C@H](Cc1ccccc1)NC(=O)[C@H](CO)NC(=O)[C@H](C)NC(=O)[C@H](CC(C)C)NC(=O)[C@H](CCCNC(=N)N)NC(=O)[C@H](CCC(N)=O)NC(=O)[C@@H](NC(=O)[C@H](C)NC(=O)[C@@H]1CSSC[C@H](NC(=O)[C@@H](N)CCCCNC(=O)CC[C@H](NC(=O)CC[C@H](NC(=O)CCCCCCCCCCCCCCCCCCC(=O)O)C(=O)O)C(=O)O)C(=O)N[C@@H](CC(N)=O)C(=O)N[C@@H]([C@@H](C)O)C(=O)N[C@@H](C)C(=O)N[C@@H]([C@@H](C)O)C(=O)N1)[C@@H](C)O)C(=O)N1CCC[C@H]1C(=O)N[C@@H](CO)C(=O)N[C@@H](CO)C(=O)N[C@H](C(=O)N[C@@H](CC(N)=O)C(=O)N[C@H](C(=O)NCC(=O)N1CCC[C@H]1C(=O)N[C@@H](CCC(=O)O)C(=O)N[C@H](C(=O)N[C@@H](Cc1ccc(O)cc1)C(N)=O)[C@@H](C)O)C(C)C)[C@@H](C)O
notes: Synthetic acylated analogue of human amylin; also called compound 120
B3: N^ε1-[(4S)-4-carboxy-4-[[(4S)-4-carboxy-4-(19-carboxynonadecanoylamino)butanoyl]amino]butanoyl]-[Glu14,Arg17,Pro21,Pro31,Pro34,Glu35]-h-amylin (peptide)
peptide: K([γGlu-γGlu-C20 diacid])CNTATCATQRLAEFLRHSSPNFGAILSSTPVGPETY-NH2
modifications: disulfide 2-7
notes: as for B1
B4: N^ε1-[(4S)-4-carboxy-4-[[(4S)-4-carboxy-4-(19-carboxynonadecanoylamino)butanoyl]amino]butanoyl]-[Glu14,Arg17,Pro23,Pro34,Glu35]-h-amylin (peptide)
peptide: K([γGlu-γGlu-C20 diacid])CNTATCATQRLAEFLRHSSNNPGAILSSTNVGPETY-NH2
modifications: disulfide 2-7; N-terminus assumed
SMILES: CC[C@H](C)[C@H](NC(=O)[C@H](C)NC(=O)CNC(=O)[C@@H]1CCCN1C(=O)[C@H](CC(N)=O)NC(=O)[C@H](CC(N)=O)NC(=O)[C@H](CO)NC(=O)[C@H](CO)NC(=O)[C@H](Cc1c[nH]cn1)NC(=O)[C@H](CCCNC(=N)N)NC(=O)[C@H](CC(C)C)NC(=O)[C@H](Cc1ccccc1)NC(=O)[C@H](CCC(=O)O)NC(=O)[C@H](C)NC(=O)[C@H](CC(C)C)NC(=O)[C@H](CCCNC(=N)N)NC(=O)[C@H](CCC(N)=O)NC(=O)[C@@H](NC(=O)[C@H](C)NC(=O)[C@@H]1CSSC[C@H](NC(=O)[C@@H](N)CCCCNC(=O)CC[C@H](NC(=O)CC[C@H](NC(=O)CCCCCCCCCCCCCCCCCCC(=O)O)C(=O)O)C(=O)O)C(=O)N[C@@H](CC(N)=O)C(=O)N[C@@H]([C@@H](C)O)C(=O)N[C@@H](C)C(=O)N[C@@H]([C@@H](C)O)C(=O)N1)[C@@H](C)O)C(=O)N[C@@H](CC(C)C)C(=O)N[C@@H](CO)C(=O)N[C@@H](CO)C(=O)N[C@H](C(=O)N[C@@H](CC(N)=O)C(=O)N[C@H](C(=O)NCC(=O)N1CCC[C@H]1C(=O)N[C@@H](CCC(=O)O)C(=O)N[C@H](C(=O)N[C@@H](Cc1ccc(O)cc1)C(N)=O)[C@@H](C)O)C(C)C)[C@@H](C)O
notes: as for B1
B5: N^ε1-[(4S)-4-carboxy-4-[[(4S)-4-carboxy-4-(19-carboxynonadecanoylamino)butanoyl]amino]butanoyl]-[His14,Arg17,Pro21,Pro27]-h-amylin (peptide)
peptide: K([γGlu-γGlu-C20 diacid])CNTATCATQRLAHFLRHSSPNFGAIPSSTNVGSNTY-NH2
modifications: disulfide 2-7; N-terminus assumed
SMILES: CC[C@H](C)[C@H](NC(=O)[C@H](C)NC(=O)CNC(=O)[C@H](Cc1ccccc1)NC(=O)[C@H](CC(N)=O)NC(=O)[C@@H]1CCCN1C(=O)[C@H](CO)NC(=O)[C@H](CO)NC(=O)[C@H](Cc1c[nH]cn1)NC(=O)[C@H](CCCNC(=N)N)NC(=O)[C@H](CC(C)C)NC(=O)[C@H](Cc1ccccc1)NC(=O)[C@H](Cc1c[nH]cn1)NC(=O)[C@H](C)NC(=O)[C@H](CC(C)C)NC(=O)[C@H](CCCNC(=N)N)NC(=O)[C@H](CCC(N)=O)NC(=O)[C@@H](NC(=O)[C@H](C)NC(=O)[C@@H]1CSSC[C@H](NC(=O)[C@@H](N)CCCCNC(=O)CC[C@H](NC(=O)CC[C@H](NC(=O)CCCCCCCCCCCCCCCCCCC(=O)O)C(=O)O)C(=O)O)C(=O)N[C@@H](CC(N)=O)C(=O)N[C@@H]([C@@H](C)O)C(=O)N[C@@H](C)C(=O)N[C@@H]([C@@H](C)O)C(=O)N1)[C@@H](C)O)C(=O)N1CCC[C@H]1C(=O)N[C@@H](CO)C(=O)N[C@@H](CO)C(=O)N[C@H](C(=O)N[C@@H](CC(N)=O)C(=O)N[C@H](C(=O)NCC(=O)N[C@@H](CO)C(=O)N[C@@H](CC(N)=O)C(=O)N[C@H](C(=O)N[C@@H](Cc1ccc(O)cc1)C(N)=O)[C@@H](C)O)C(C)C)[C@@H](C)O
notes: Synthetic acylated analogue of human amylin; also called compound 92

molecular target: T1, rat calcitonin receptor (rat, UniProt P32214 25-516); assay: SPA competition with 125I-calcitonin on membranes of BHK tk'ts 13 cells with rat calcitonin receptor (Assay VIII)
T1 construct: whole, on cells; Membranes of transiently transfected BHK tk'ts 13 cells; also called rCTR; rat calcitonin (a) receptor
T1 sequence (looked up): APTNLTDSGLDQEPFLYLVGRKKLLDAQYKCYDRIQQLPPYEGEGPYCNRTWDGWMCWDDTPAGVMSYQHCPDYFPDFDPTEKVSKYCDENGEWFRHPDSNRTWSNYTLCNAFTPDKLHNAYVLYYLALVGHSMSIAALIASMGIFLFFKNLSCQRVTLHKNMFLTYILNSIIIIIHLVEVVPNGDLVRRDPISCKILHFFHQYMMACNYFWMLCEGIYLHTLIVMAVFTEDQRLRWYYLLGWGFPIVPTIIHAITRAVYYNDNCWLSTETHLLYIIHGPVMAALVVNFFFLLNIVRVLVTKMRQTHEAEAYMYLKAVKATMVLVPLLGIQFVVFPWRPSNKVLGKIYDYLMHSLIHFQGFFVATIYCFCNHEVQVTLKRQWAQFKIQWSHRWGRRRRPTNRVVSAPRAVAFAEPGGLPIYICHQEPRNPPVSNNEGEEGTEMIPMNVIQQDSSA

**Q.** With B1 as the binder, how does the IC50 read?
**A.** Its IC50 is 23.4 nM.

**Q.** How did the IC50 turn out when B2 was run?
**A.** Its IC50 is 140 nM.

**Q.** With B3 as the binder, how does the IC50 read?
**A.** The IC50 was 33.5 nM.

**Q.** Which IC50 does the source give for B4 here?
**A.** Its IC50 is 86.8 nM.

**Q.** Which IC50 does the source give for B5 here?
**A.** The IC50 was 104 nM.

molecular target: T2, human calcitonin receptor (human, UniProt P30988 25-474); assay: ratio of IC50 on human calcitonin receptor to IC50 on human amylin receptor (reference m42), SPA competition
T2 construct: whole, on cells; Membranes of stably transfected cells; also called hCTR; hCT
T2 sequence (looked up): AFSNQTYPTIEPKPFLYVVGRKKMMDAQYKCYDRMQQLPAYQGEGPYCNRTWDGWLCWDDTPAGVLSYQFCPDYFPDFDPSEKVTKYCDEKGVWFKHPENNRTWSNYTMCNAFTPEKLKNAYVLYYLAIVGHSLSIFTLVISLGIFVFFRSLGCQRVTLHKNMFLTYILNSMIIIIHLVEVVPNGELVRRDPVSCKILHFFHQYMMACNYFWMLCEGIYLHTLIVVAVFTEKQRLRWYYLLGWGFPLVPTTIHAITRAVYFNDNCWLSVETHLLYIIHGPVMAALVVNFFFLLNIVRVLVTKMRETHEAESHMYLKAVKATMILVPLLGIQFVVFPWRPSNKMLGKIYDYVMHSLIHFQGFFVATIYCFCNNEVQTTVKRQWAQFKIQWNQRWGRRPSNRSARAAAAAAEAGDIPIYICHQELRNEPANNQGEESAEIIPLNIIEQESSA
Summary of the method: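 Membranes (35 ng/μL final) + SPA beads, 50 mM Hepes pH 7.4 buffer with 1 mM CaCl2, 5 mM MgCl₂, 0.1% OA, 0.02% Tween20; 120 min, 25° C, shaking; centrifuged, counted; IC₅₀ by one-site binding competition.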

**Q.** Which “Ratio hCT/hAmylin binding” value does the source give for B1 here?
**A.** Its value is 18.

**Q.** How did the “Ratio hCT/hAmylin binding” value turn out when B2 was run?
**A.** The value was 45.3.

**Q.** B3 was tested. Which “Ratio hCT/hAmylin binding” value did it give?
**A.** Its value is 22.6.

**Q.** With B4 as the binder, how does the “Ratio hCT/hAmylin binding” value read?
**A.** The value was 7.8.

**Q.** Which “Ratio hCT/hAmylin binding” value does the source give for B5 here?
**A.** Its value is 145.

molecular target: T3, rat amylin receptor (rat calcitonin receptor + rat RAMP 3) (rat, UniProt P32214 25-516; Q9JJ73 23-147); assay: SPA competition with 125I-rat amylin on membranes of BHK tk'ts 13 cells with rat calcitonin receptor + rat RAMP3 (Assay VI)
T3 construct: whole, on cells; Membranes of transiently transfected BHK tk'ts 13 cells; also called rAmylin-R; rat amylin 3(a) receptor
T3 sequence (looked up) 1: T1 sequence (looked up)
T3 sequence (looked up) 2: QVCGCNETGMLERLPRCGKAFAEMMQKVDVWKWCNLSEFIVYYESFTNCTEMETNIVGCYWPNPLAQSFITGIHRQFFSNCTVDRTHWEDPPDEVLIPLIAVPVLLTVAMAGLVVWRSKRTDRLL

**Q.** With B1 as the binder, how does the IC50 read?
**A.** The IC50 was 0.205 nM.

**Q.** For B2, which IC50 is on record?
**A.** The IC50 was 0.161 nM.

**Q.** B3 was tested. Which IC50 did it give?
**A.** The IC50 was 0.449 nM.

**Q.** For B4, which IC50 is on record?
**A.** The IC50 was 0.659 nM.

**Q.** Which IC50 does the source give for B5 here?
**A.** The IC50 was 0.668 nM.

molecular target: T1, rat calcitonin receptor; assay: ratio of IC50 on rat calcitonin receptor to IC50 on rat amylin receptor (reference m40)

**Q.** Which “Ratio rCT/rAmylin binding” value does the source give for B1 here?
**A.** Its value is 114.

**Q.** With B2 as the binder, how does the “Ratio rCT/rAmylin binding” value read?
**A.** Its value is 868.

**Q.** How did the “Ratio rCT/rAmylin binding” value turn out when B3 was run?
**A.** Its value is 74.7.

**Q.** With B4 as the binder, how does the “Ratio rCT/rAmylin binding” value read?
**A.** Its value is 132.

**Q.** Which “Ratio rCT/rAmylin binding” value does the source give for B5 here?
**A.** Its value is 156.
